B1: AURKA-Venus WT [human] / TPX2 [human (endogenous in U2OS)] (parent complex)
chain 1: MDRSKENCISGPVKATAPVGGPKRVLVTQQFPCQNPLPVNSGQAQRVLCPSNSSQRIPLQAQKLVSSHKPVQNQKQKQLQATSVPHPVSRPLNNTQKSKQPLPSAPENNPEEELASKQKNEESKKRQWALEDFEIGRPLGKGKFGNVYLAREKQSKFILALKVLFKAQLEKAGVEHQLRREVEIQSHLRHPNILRLYGYFHDATRVYLILEYAPLGTVYRELQKLSKFDEQRTATYITELANALSYCHSKRVIHRDIKPENLLLGSAGELKIADFGWSVHAPSSRRTTLCGTLDYLPPEMIEGRMHDEKVDLWSLGVLCYEFLVGKPPFEANTYQETYKRISRVEFTFPDFVTEGARDLISRLLKHNPSQRPMLREVLEHPWITANSSKPSNCQNKESASKQS
chain 2: MSQVKSSYSYDAPSDFINFSSLDDEGDTQNIDSWFEEKANLENKLLGKNGTGGLFQGKTPLRKANLQQAIVTPLKPVDNTYYKEAEKENLVEQSIPSNACSSLEVEAAISRKTPAQPQRRSLRLSAQKDLEQKEKHHVKMKAKRCATPVIIDEILPSKKMKVSNNKKKPEEEGSAHQDTAEKNASSPEKAKGRHTVPCMPPAKQKFLKSTEEQELEKSMKMQQEVVEMRKKNEEFKKLALAGIGQPVKKSVSQVTKSVDFHFRTDERIKQHPKNQEEYKEVNFTSELRKHPSSPARVTKGCTIVKPFNLSQGKKRTFDETVSTYVPLAQQVEDFHKRTPNRYHLRSKKDDINLLPSKSSVTKICRDPQTPVLQTKHRARAVTCKSTAELEAEELEKLQQYKFKARELDPRILEGGPILPKKPPVKPPTEPIGFDLEIEKRIQERESKKKTEDEHFEFHSRPCPTKILEDVVGVPEKKVLPITVPKSPAFALKNRIRMPTKEDEEEDEPVVIKAQPVPHYGVPFKPQIPEARTVEICPFSFDSRDKERQLQKEKKIKELQKGEVPKFKALPLPHFDTINLPEKKVKNVTQIEPFCLETDRRGALKAQTWKHQLEEELRQQKEAACFKARPNTVISQEPFVPKKEKKSVAEGLSGSLVQEPFQLATEKRAKERQELEKRMAEVEAQKAQQLEEARLQEEEQKKEELARLRRELVHKANPIRKYQGLEIKSSDQPLTVPVSPKFSTRFHC

Variants of B1 are the subject of the test. As to the kind of experiment: in situ proximity ligation assay (isPLA); mitotic U2OS cells, endogenous TPX2, n ≥ 10 cells; read off a plot.
Turning to chain 1 MDRSKENCISGPVKATAPVGGPKRVLVTQQFPCQNPLPVNSGQAQRVLCPSNSSQRIPLQAQKLVSSHKPVQNQKQKQLQATSVPHPVSRPLNNTQKSKQPLPSAPENNPEEELASKQKNEESKKRQWALEDFEIGRPLGKGKFGNVYLAREKQSKFILALKVLFKAQLEKAGVEHQLRREVEIQSHLRHPNILRLYGYFHDATRVYLILEYAPLGTVYRELQKLSKFDEQRTATYITELANALSYCHSKRVIHRDIKPENLLLGSAGELKIADFGWSVHAPSSRRTTLCGTLDYLPPEMIEGRMHDEKVDLWSLGVLCYEFLVGKPPFEANTYQETYKRISRVEFTFPDFVTEGARDLISRLLKHNPSQAPMLREVLEHPWITANSSKPSNCQNKESASKQS [chain 1 R371A], the response is roughly 3 AU. As for chain 1 MDRSKENCISGPVKATAPVGGPKRVLVTQQFPCQNPLPVNSGQAQRVLCPSNSSQRIPLQAQKLVSSHKPVQNQKQKQLQATSVPHPVSRPLNNTQKSKQPLPSAPENNPEEELASKQKNEESKKRQWALEDFEIGRPLGKGKFGNVYLAREKQSKFILALKVLFKAQLEKAGVEHQLRREVEIQSHLRHPNILRLYGYFHDATRVYLILEYAPLGTVYRELQKLSKFDEQRTATYITELANALSYCHSKRVIHRDIKPENLLLGSAGELKIADFGWSVHAPSSRRTTLCGTLDYLPPEMIEGRMHDEKVDLWSLGVLCYEFLVGKPPFEANTYQETYKRISRVEFTFPDFVTEGARDLISRLLKHNPSQAPMAREVLEHPWITANSSKPSNCQNKESASKQS [chain 1 R371A, chain 1 L374A], the response was roughly 1.3 AU. On to chain 1 MDRSKENCISGPVKATAPVGGPKRVLVTQQFPCQNPLPVNSGQAQRVLCPSNSSQRIPLQAQKLVSSHKPVQNQKQKQLQATSVPHPVSRPLNNTQKSKQPLPSAPENNPEEELASKQKNEESKKRQWALEDFEIGRPLGKGKFGNVYLAREKQRKFILALKVLFKAQLEKAGVEHQLRREVEIQSHLRHPNILRLYGYFHDATRVYLILEYAPLGTVYRELQKLSKFDEQRTATYITELANALSYCHSKRVIHRDIKPENLLLGSAGELKIADFGWSVHAPSSRRTTLCGTLDYLPPEMIEGRMHDEKVDLWSLGVLCYEFLVGKPPFEANTYQETYKRISRVEFTFPDFVTEGARDLISRLLKHNPSQRPMLREVLEHPWITANSSKPSNCQNKESASKQS [chain 1 S155R], for which the response was roughly 2.6 AU. Regarding chain 1 MDRSKENCISGPVKATAPVGGPKRVLVTQQFPCQNPLPVNSGQAQRVLCPSNSSQRIPLQAQKLVSSHKPVQNQKQKQLQATSVPHPVSRPLNNTQKSKQPLPSAPENNPEEELASKQKNEESKKRQWALEDFEIGRPLGKGKFGNVYLAREKQSKFILALKVLFKAQLEKAGVEHQLRREVEIQSHLRHPNILRLYGYFHDATRVYLILEYAPLGTVYRELQKLSKFDEQRTATYITELANALSYCHSKRVIHRDIKPENLLLGSAGELKIADFGWSVHAPSSRRTTLCGTLDYLPPEMIEGRMHDEKVDLWSLGVLCYEFLVGKPPFEANTYQETYKRISRVEFTFPDFVTEGARDLISRLLKHNPSQRPMIREVLEHPWITANSSKPSNCQNKESASKQS [chain 1 L374I], the response is roughly 3.7 AU.
